The results in this text go back to US20200199217A1 (published 2020).

Substitutions are numbered along the chain they refer to.

Test in all cases: cell-based or functional assay
The target in experiment [1] is T1, hu-IL-36α (human, UniProt Q9UHA7 6-158).
T1 sequence: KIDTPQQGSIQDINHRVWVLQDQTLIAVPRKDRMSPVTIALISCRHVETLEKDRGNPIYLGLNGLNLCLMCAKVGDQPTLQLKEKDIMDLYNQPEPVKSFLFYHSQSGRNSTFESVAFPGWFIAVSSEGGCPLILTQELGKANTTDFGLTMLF

The target of experiment [2] is T2, hu-IL-36β (human).
T2 chain: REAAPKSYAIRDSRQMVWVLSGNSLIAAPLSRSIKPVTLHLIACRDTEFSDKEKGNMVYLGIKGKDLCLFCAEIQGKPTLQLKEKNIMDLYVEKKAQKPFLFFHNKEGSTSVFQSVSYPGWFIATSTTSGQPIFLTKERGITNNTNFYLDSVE

In experiment [3] the target is T3, hu-IL-36γ (human, UniProt Q9NZH8 18-169).
T3 sequence: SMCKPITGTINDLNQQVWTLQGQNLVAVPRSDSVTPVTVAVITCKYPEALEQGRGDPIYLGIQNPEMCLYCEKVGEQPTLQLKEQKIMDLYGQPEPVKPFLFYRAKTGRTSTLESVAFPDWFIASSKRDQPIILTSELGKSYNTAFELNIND

The target in experiment [4] is T1, hu-IL-36α. The source holds these as a separate data set.
Experiment [5] addresses T3, hu-IL-36γ. The source holds these as a separate data set.
Experiment [6] addresses T1, hu-IL-36α. The source holds these as a separate data set.
For experiment [7], the target named is T3, hu-IL-36γ. This is another data set of the same source.
Experiment [8] concerns the target T2, hu-IL-36β.
In experiment [9] the target is T2, hu-IL-36β.
Experiment [10] has as its target T4, cy-IL-36α (cynomolgus monkey, UniProt Q9UHA7 14-158 (human entry), limits assumed).
T4 chain: T1 sequence with I2S, D3E, T4M, Q7P, G8V, T24I, M34V, A40S, V74A

Experiment [11] has as its target T5, cy-IL-36γ (cynomolgus monkey, UniProt Q9NZH8 18-167 (human entry), limits assumed).
T5 chain: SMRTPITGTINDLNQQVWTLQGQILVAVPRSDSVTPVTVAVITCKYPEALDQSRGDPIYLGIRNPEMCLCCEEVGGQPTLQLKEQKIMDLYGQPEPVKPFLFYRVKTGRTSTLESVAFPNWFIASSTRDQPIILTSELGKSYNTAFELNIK

B1: anti-IL-36 multispecific antibody mAb2.10/mAb6_2.7 (bispecific antibody, human IgG1, lambda, N297G)
heavy 1: not shown
heavy 2: not shown
light: ESVLTQPPSVSGAPGQRVTISCTGSSSNIGAHYDVHWYQQLPGTAPKLLIYGNDNRPSGVPDRFSGSKSGTSASLAITGLQAEDEADYYCQSYDYSLSGYVFGGGTKLTVLGQPKAAPSVTLFPPSSEELQANKATLVCLISDFYPGAVTVAWKADSSPVKAGVETTTPSKQSNNKYAASSYLSLTPEQWKSHKSYSCQVTHEGSTVEKTVAPTECS
For B1, the “percent of IL-8 production in HaCat cells inhibited at 8 nM antibody” value in experiment [1], in experiment [2] and in [3] was 100% throughout. Besides, the “percent of IL-8 production in primary human adult keratinocytes inhibited at 8 nM antibody” value in [1], in [2] and in experiment [3] was 100% each time.

B2: mAb1.0 Fab (Fab, V domains shown)
VH: QVQLVESGGGVVQPGRSLRLSCAASGFSFSAYAMHWVRQAPGKGLEWVAVISYDGTNEYYADSVKGRFTISRDNSKNTLYLQMNSLRAEDTAVYYCARGIRIFTSYFDSWGQGTLVTVSS
VL: QSVLTQPPSVSGAPGQRVTISCTGSSSNIGAHYDVHWYQQLPGTAPKLLIYSNNNRPSGVPDRFSGSKSGTSASLAITGLQAEDEADYYCQSYDYSLRGYVFGGGTKLTVL
As for B2, the “% Inhibition, HEK Blue SEAP reporter assay” value (“% Inhibition” below) was determined as 70% in experiment [4] and 31% in experiment [5].

B3: mAb3.0 IgG (antibody, V domains shown)
VH: QLQLQESGPGLVKPSETLSLTCTVSGGSISSTSYYWGWIRQPPGKGLEWIGSIHYSGNTYYNPSLKSRVTISVDTSKNQFSLKLSSVTAADTAVYYCARVHYGGYIPRRFDHWGQGTLVTVSS
VL: B2 VL with H32G, S52G, N54T
As for B3, the figures for the “IC50, HEK Blue SEAP reporter assay” value in experiment [6] and in [7] were 90 nM and 30 nM, respectively.

B4: mAb3.0 Fab (Fab, V domains shown)
VH: B3 VH
VL: B2 VL with H32G, S52G, N54T
As to B4, the “% Inhibition” value in experiment [4] was 40%; in [5], 64%.

B5: mAb1.0 IgG (antibody, V domains shown)
VH: B2 VH
VL: B2 VL
With B5, the results for the “IC50, HEK Blue SEAP reporter assay” value in [6] and in experiment [7] were 43 nM and 5.3 nM, respectively.

B6: mAb4.0 Fab (Fab, V domains shown)
VH: QLQLQESGPGLVKPSETLSLTCTVSGGSIGSRSYYWGWIRQPPGKGLEWIGSIHYSGTTYYNPSLKSRVTISVDTSKNQFSLKLSSVTAADTAVYYCARVAPSYPRVFDYWGQGTLVTVSS
VL: B2 VL with H32G, S52G, N54R, G99V
As for B6, the “% Inhibition” value was 91% in experiment [4] and 57% in experiment [5].

B7: mAb5.0 Fab (Fab, V domains shown)
VH: EVQLLESGGGLVQPGGSLRLSCAASGFTFSTYAMSWVRQAPGKGLEWVSGISGGSGYTYYADSVKGRFTISRDNSKNTLYLQMNSLRAEDTAVYYCARVVTYRDPPASFDYWGQGTLVTVSS
VL: B2 VL with S52G, N54D, R98K, G99A
Consider B7, for which the “% Inhibition” value in [4] and in experiment [5] was 75% throughout.

B8: mAb5.0 IgG (antibody, V domains shown)
VH: B7 VH
VL: B2 VL with S52G, N54D, R98K, G99A
Turning to B8, the “IC50, HEK Blue SEAP reporter assay” value in experiment [6] was 95 nM; in experiment [7], 142 nM.

B9: mAb4.0 IgG (antibody, V domains shown)
VH: B6 VH
VL: B2 VL with H32G, S52G, N54R, G99V
Consider B9, for which the figures for the “IC50, HEK Blue SEAP reporter assay” value in experiment [6] and in [7] were 16 nM and 52 nM, respectively.

B10: mAb6.0 Fab (Fab, V domains shown)
VH: QLQLQESGPGLVKPSETLSLTCTVSGGSITSSNYYWGWIRQPPGKGLEWIGSIDYTGSTYYNPSLKSRVTISVDTSKNQFSLKLSSVTAADTAVYYCARGKYYETYLGFDVWGQGTLVTVSS
VL: B2 VL with H32G, S52G, N54T, Y95I, R98S, Y100W
For the molecule B10, in [8], the “% Inhibition” value was 86%.

B11: mAb2.0 Fab (Fab, V domains shown)
VH: B3 VH with S31T, T32S, H54Y, S56T, H101R, G104V, Y105G, I106V, R109Y, H112P
VL: B2 VL with S52G, N54D, R98S
On to B11, for which the “% Inhibition” value amounted to 91% in [4] and 89% in experiment [5].

B12: mAb8.0 Fab (Fab, V domains shown)
VH: QVQLVQSGAEVKKPGSSVKVSCKASGGTFSNYAISWVRQAPGQGLEWMGGILPILGTVDYAQKFQGRVTITADESTSTAYMELSSLRSEDTAVYYCAREPWYRLGAFDVWGQGTLVTVSS
VL: DIQMTQSPSSLSASVGDRVTITCRASQTIYKYLNWYQQKPGKAPKLLIYAASSLQSGVPSRFSGSGSGTDFTLTISSLQPEDFATYYCQQYSSIPYTFGQGTKVEIK
Take B12: the “% Inhibition” value in experiment [8] turned out to be 85%.

B13: mAb8.0 IgG (antibody, V domains shown)
VH: B12 VH
VL: B12 VL
In the case of B13, the “IC50, HEK Blue SEAP reporter assay” value in experiment [9] was 0.34 nM.

B14: mAb2.0 IgG (antibody, V domains shown)
VH: B3 VH with S31T, T32S, H54Y, S56T, H101R, G104V, Y105G, I106V, R109Y, H112P
VL: QSVLTQPPSVSGAPGQRVTISCTGSSSNIGAHYDVHWYQQLPGTAPKLLIYGNDNRPSGVPDRFSGSKSGTSASLAITGLQAEDEADYYCQSYDYSLSGYVFGGGTKLTVLG
With B14, the results for the “IC50, HEK Blue SEAP reporter assay with cynomolgus IL-36 on human IL-36 receptor” value in experiment [10] and in experiment [11] were 0.56 nM and 1.71 nM, respectively. Besides, the “IC50, HEK Blue SEAP reporter assay” value worked out at 5.7 nM in experiment [6] and 7.5 nM in experiment [7].

B15: mAb6.0_2.0 IgG (antibody, V domains shown)
VH: B10 VH
VL: B14 VL
On to B15, for which the “fold lower potency than mAb6.0 IgG, HaCat IL-8 assay” value in [2] was 16 fold.

B16: mAb7.0 Fab (Fab, V domains shown)
VH: QVQLVESGGGVVQPGRSLRLSCAASGFTFSSYGMHWVRQAPGKGLEWVAVISYGGSERYYADSVKGRFTISRDNSKNTLYLQMNSLRAEDTAVYYCAREPWYSSRGWTGYGFDVWGQGTLVTVSS
VL: EIVLTQSPGTLSLSPGERATLSCRASQSVSSNYLAWYQQKPGQAPKLLIYSASSLQSGVPSRFSGSGSGTDFTLTISSLQPEDFATYYCQQTYSYPPTFGQGTKVEIK
Regarding B16, in experiment [8], the “% Inhibition” value amounted to 84%.

B17: mAb7.0 IgG (antibody, V domains shown)
VH: B16 VH
VL: B16 VL
Take B17: in experiment [9], the “IC50, HEK Blue SEAP reporter assay” value was 1.4 nM.
